The results in this text go back to the Immune Epitope Database (IEDB).

Test [1] concerns the target HLA-B*07:02. As to the kind of experiment: IEDB peptide-MHC binding, purified MHC/competitive/fluorescence; ≥ and ≤ were set here for values at or beyond the usual limits of such assays.
The target in test [2] is HLA-A*03:01. Described as above.
Another test concerns the target HLA-A*11:01. The test is described as above. As to conditions: source organism: Vaccinia virus.
A further test addresses HLA-B*40:01. As to the kind of experiment: IEDB peptide-MHC binding, purified MHC/competitive/fluorescence; filed as Kd, often an IC50 or EC50 that approximates it; ≥ and ≤ were set here for values at or beyond the usual limits of such assays.
In a further test the target is HLA-B*15:01. The test is described as above.
Test [3] concerns the target HLA-B*07:02. The test is described as above.
In test [4] the target is HLA-A*02:01. Kind of test: IEDB peptide-MHC binding, purified MHC/competitive/radioactivity; ≥ and ≤ were set here for values at or beyond the usual limits of such assays.
Another test addresses HLA-A*24:02. Kind of test: IEDB peptide-MHC binding, purified MHC/competitive/fluorescence; ≥ and ≤ were set here for values at or beyond the usual limits of such assays. As to conditions: source organism: Vaccinia virus Copenhagen.
The target in test [5] is HLA-A*24:03. Kind of test: IEDB peptide-MHC binding, purified MHC/competitive/fluorescence; filed as Kd, often an IC50 or EC50 that approximates it; ≥ and ≤ were set here for values at or beyond the usual limits of such assays.
The target in the next test is HLA-A*02:03. Kind of test: IEDB peptide-MHC binding, purified MHC/direct/fluorescence; filed as Kd, often an IC50 or EC50 that approximates it; ≥ and ≤ were set here for values at or beyond the usual limits of such assays. The following applies: source organism: Influenza A virus (A/England/654/2007(H1N1)).
The next test addresses HLA-A*02:11. Described as above. The following applies: source organism: Influenza A virus (A/England/654/2007(H1N1)).
The next test addresses HLA-A*02:12. The test is described as above. As to conditions: source organism: Influenza A virus (A/England/654/2007(H1N1)).
For another test, the target named is HLA-A*02:16. The test is described as above. The following applies: source organism: Influenza A virus (A/England/654/2007(H1N1)).
The target in the next test is HLA-A*02:19. The description is as above. The following applies: source organism: Influenza A virus (A/England/654/2007(H1N1)).
The target of test [6] is HLA-A*03:01. Described as above. The following applies: source organism: Influenza A virus (A/England/654/2007(H1N1)).
Another test addresses HLA-A*23:01. The description is as above.
For test [7], the target named is HLA-A*24:03. The test is described as above.
The next test deals with HLA-A*29:02. The description is as above. As to conditions: source organism: Influenza A virus (A/England/654/2007(H1N1)).
The next test deals with HLA-A*68:02. The description is as above. As to conditions: source organism: Influenza A virus (A/England/654/2007(H1N1)).
For test [8], the target named is HLA-A*01:01. As to the kind of experiment: IEDB peptide-MHC binding, purified MHC/competitive/fluorescence; filed as Kd, often an IC50 or EC50 that approximates it; ≥ and ≤ were set here for values at or beyond the usual limits of such assays. The following applies: source organism: Influenza A virus (A/Yokohama/22/2002(H1N2)).
Test [9] has as its target HLA-A*02:01. Described as above.
For the next test, the target named is HLA-A*26:01. Described as above.
The target of the next test is HLA-A*69:01. Described as above. As to conditions: source organism: Influenza A virus (A/Yokohama/22/2002(H1N2)).
The target of a further test is HLA-B*15:17. The description is as above.
The target in the next test is HLA-B*18:01. Described as above.
A further test addresses HLA-B*27:03. The description is as above.
The target of the next test is HLA-B*39:01. Described as above.
The next test concerns the target HLA-B*46:01. The test is described as above.
A further test concerns the target HLA-B*51:01. The test is described as above.
For another test, the target named is HLA-B*57:01. The description is as above.
For test [10], the target named is HLA-A*01:01. As to the kind of experiment: IEDB peptide-MHC binding, purified MHC/direct/fluorescence; filed as Kd, often an IC50 or EC50 that approximates it; ≥ and ≤ were set here for values at or beyond the usual limits of such assays. As to conditions: source organism: Reston ebolavirus - Reston.
The target of a further test is HLA-C*05:01. The test is described as above.
Another test has as its target HLA-B*58:01. Kind of test: IEDB peptide-MHC binding, purified MHC/competitive/fluorescence; filed as Kd, often an IC50 or EC50 that approximates it; ≥ and ≤ were set here for values at or beyond the usual limits of such assays. As to conditions: source organism: Escherichia coli.
Where [11] appears, read: source organism: Vaccinia virus.
The mark [12] stands for this setting: source organism: Salmonella enterica subsp. enterica serovar Typhi.
[13] abbreviates: source organism: Vaccinia virus Copenhagen.
The mark [14] stands for this setting: source organism: Influenza A virus (A/England/654/2007(H1N1)).
The mark [15] stands for this setting: source organism: Influenza A virus (A/Yokohama/22/2002(H1N2)).
The mark [16] stands for this setting: source organism: Burkholderia mallei ATCC 23344.
Where [17] appears, read: source organism: Human papillomavirus 16.
Where [18] appears, read: source organism: Reston ebolavirus - Reston (1989).
Setting [19] is: source organism: Escherichia coli.
[20] abbreviates: source organism: Zaire ebolavirus.
[21] abbreviates: source organism: Vibrio vulnificus CMCP6.

By IC50 is commonly meant the concentration that gives 50% inhibition. NPIVPSFDM came in with an IC50 with HLA-B*07:02 [1] (source organism: Influenza A virus (A/Oklahoma/309/2006(H3N2))) of 1.23 µM.
Regarding LVRSETKQK, the IC50 is 5.02 µM in the test with HLA-A*03:01 [2] (setting [11]), 7.02 µM with HLA-A*11:01 and 34.6 µM in the test with HLA-B*07:02 [1] (setting [11]).
A word on the Kd: it is the equilibrium constant for the complex coming apart. A low value points to tighter binding. Consider MEIKILHKQ, for which the Kd with HLA-B*40:01 (source organism: Escherichia coli 536) is at least 20 µM.
For AELFVAHYM, the Kd with HLA-B*15:01 (setting [12]) was at least 20 µM; in the test with HLA-B*40:01 (setting [12]), 0.0108 µM.
For LPYPYSSSA, the Kd in the test with HLA-B*07:02 [3] (source organism: Shigella boydii CDC 3083-94) came to 0.0796 µM.
As for AIMEKNIML, the IC50 with HLA-A*02:01 [4] (source organism: Influenza A virus (A/Alaska/6/1977(H3N2))) is 0.104 µM.
Take IVFYRSGTE: the figures for the IC50 in the test with HLA-A*03:01 [2] (setting [13]), in the test with HLA-A*24:02 and in the test with HLA-B*07:02 [1] (setting [13]) were at least 85.9 µM, at least 6580 µM and at least 223 µM, respectively.
In the case of HYGTEGQEF, in the test with HLA-A*24:03 [5] (source organism: Escherichia coli APEC O1), the Kd was 0.0029 µM.
In the case of WTGMVDGWY, the Kd in the test with HLA-A*02:03, in the test with HLA-A*02:11, in the test with HLA-A*02:12, with HLA-A*02:16, with HLA-A*02:19 and with HLA-A*03:01 [6] was at least 20 µM each time. Moreover, the Kd with HLA-A*23:01 (setting [14]) was at least 20 µM; with HLA-A*24:03 [7] (setting [14]), at least 20 µM; with HLA-A*29:02, at least 20 µM; in the test with HLA-A*68:02, at least 20 µM; with HLA-A*01:01 [8] it was 0.0103 µM; with HLA-A*02:01 [9] (setting [15]) it was at least 20 µM. In addition, the Kd in the test with HLA-A*26:01 (setting [15]), in the test with HLA-A*69:01, with HLA-B*15:01 (setting [15]), with HLA-B*15:17 (setting [15]), with HLA-B*18:01 (setting [15]) and with HLA-B*27:03 (setting [15]) was at least 20 µM each time. Also, the Kd with HLA-B*39:01 (setting [15]), in the test with HLA-B*46:01 (setting [15]), in the test with HLA-B*51:01 (setting [15]) and with HLA-B*57:01 (setting [15]) was at least 20 µM in each case.
Turning to PFFFGFSHF, the Kd came to 0.024 µM in the test with HLA-A*23:01 (setting [16]) and 0.704 µM with HLA-A*24:03 [7] (setting [16]).
Turning to VLLLWITAA, the IC50 in the test with HLA-A*02:01 [4] (setting [17]) came out at 0.011 µM.
Regarding FSDLCNFLI, the Kd with HLA-A*01:01 [10] was 0.153 µM; with HLA-C*05:01 (setting [18]) it was 0.009 µM; in the test with HLA-A*02:01 [9] (setting [18]) it was at least 20 µM; with HLA-A*26:01 (setting [18]) it was at least 20 µM; with HLA-B*15:01 (setting [18]), at least 20 µM; in the test with HLA-B*15:17 (setting [18]) it was at least 20 µM. Moreover, the Kd with HLA-B*18:01 (setting [18]), with HLA-B*27:03 (setting [18]), in the test with HLA-B*39:01 (setting [18]), with HLA-B*46:01 (setting [18]), with HLA-B*51:01 (setting [18]) and in the test with HLA-B*57:01 (setting [18]) was at least 20 µM throughout.
On to LLALLSCLTI, for which, in the test with HLA-A*02:01 [4] (source organism: Hepacivirus hominis), the IC50 was found to be 0.385 µM.
For VPRYAFAM, in the test with HLA-B*07:02 [3] (source organism: Influenza A virus), the Kd was at most 0.001 µM.
In turn, IPSATKRWG had an IC50 with HLA-B*07:02 [1] (source organism: Sudan ebolavirus) of 49.6 µM.
In turn, MENLMYALL had a Kd with HLA-B*40:01 (source organism: Bacillus anthracis str. A0488) of 0.0284 µM. That is a double-digit nanomolar value.
In the case of NLGNLNVSI, the IC50 in the test with HLA-A*02:01 [4] (source organism: Hepatitis B virus subtype ayw) stood at 0.076 µM.
In the test with HLA-B*07:02 [1] (source organism: Influenza A virus (A/Victoria/1968(H3N2))), LKNDLLENLQ displayed an IC50 of at least 495 µM.
Turning to LESAIGLPM, the Kd in the test with HLA-B*40:01 (source organism: Shigella flexneri 5 str. 8401) worked out at 0.0072 µM.
Take RAMACSALI: the Kd came out at 0.347 µM in the test with HLA-C*05:01 (setting [19]), 0.0261 µM with HLA-A*02:01 [9] (setting [19]), 2.97 µM with HLA-B*51:01 (setting [19]) and 0.0129 µM in the test with HLA-B*58:01.
Regarding PSGSTSPRM, the IC50 in the test with HLA-B*07:02 [1] (setting [20]) was at least 202 µM.
In the case of SLYNAIATL, the IC50 in the test with HLA-A*02:01 [4] (source organism: Human immunodeficiency virus 1) came out at 0.036 µM.
In the test with HLA-B*07:02 [1] (setting [20]), EPVVFSTSD registered an IC50 of at least 144 µM.
In the case of MFVSNRWFL, the Kd with HLA-A*23:01 (setting [21]) turned out to be 0.002 µM; with HLA-A*24:03 [7] (setting [21]), 0.005 µM.
As to QYVLMPGKV, the Kd with HLA-A*24:03 [5] (setting [19]) was found to be 2.58 µM.
Turning to TVILGVLLL, the IC50 with HLA-A*02:01 [4] (source organism: Homo sapiens) stood at 0.847 µM.
As to VLPSPACQLV, in the test with HLA-A*02:01 [4] (source organism: Homo sapiens), the IC50 amounted to 0.5 µM.
As to TLIDVCPI, the IC50 with HLA-A*02:01 [4] (setting [17]) is 0.033 µM.
